We go through eight proteins from PMC4811492, “Dimeric peroxiredoxins are druggable targets in human Burkitt lymphoma” (Oncotarget, 2015).

Series [1] concerns the molecule itself. Briefly: cross-linking; Raji or Ramos cells cultured with SK053 (10 uM, or indicated concentrations for 24 h) or SK-bio (55 uM, time course); lysates resolved under denaturing and reducing conditions, immunoblot with PRDX-specific antibodies; monomer ~22 kDa, dimer ~44 kDa.
Series [2] concerns the molecule itself. Briefly: cross-linking; recombinant human PRDX1 incubated with SK-bio in vitro (Supplementary Figure S7); dimer formation less efficient than in cells.
Series [3] concerns the molecule itself. Briefly: cross-linking; HEK293T cells transfected with pLenti6-PRDX1-V5 (WT or Cys-to-Ala variants), 24 h later 41 uM SK053 or DMSO for 24 h; immunoblot with anti-V5 and anti-PRDX1. (Immunoblotting shows a protein as a band on a membrane.)

B1: peroxiredoxin 1 (PRDX1), endogenous in Burkitt lymphoma cells (enzyme, human (endogenous in Raji and Ramos), UniProt Q06830 1-199, looked up)
chain: MSSGNAKIGHPAPNFKATAVMPDGQFKDISLSDYKGKYVVFFFYPLDFTFVCPTEIIAFSDRAEEFKKLNCQVIGASVDSHFCHLAWVNTPKKQGGLGPMNIPLVSDPKRTIAQDYGVLKADEGISFRGLFIIDDKGILRQITVNDLPVGRSVDETLRLVQAFQFTDKHGEVCPAGWKPGSDTIKPDVQKSKEYFSKQK
notes: peroxiredoxin 1, human, endogenous in Raji and Ramos Burkitt lymphoma cells; source: endogenous, Raji and Ramos cells
As for B1, in series [1], the stoichiometry N (as a rule, the number of molecules, sites or subunits per partner or assembly) stood at 2.

B2: recombinant human PRDX1 (enzyme, UniProt Q06830 1-199, looked up)
chain: MSSGNAKIGHPAPNFKATAVMPDGQFKDISLSDYKGKYVVFFFYPLDFTFVCPTEIIAFSDRAEEFKKLNCQVIGASVDSHFCHLAWVNTPKKQGGLGPMNIPLVSDPKRTIAQDYGVLKADEGISFRGLFIIDDKGILRQITVNDLPVGRSVDETLRLVQAFQFTDKHGEVCPAGWKPGSDTIKPDVQKSKEYFSKQK
notes: peroxiredoxin 1, human, recombinant
As for B2, in series [2], the “stoichiometry N” value came to 2.

B3: V5-tagged human wild-type PRDX1 (enzyme, UniProt Q06830 1-199, looked up)
chain: MSSGNAKIGHPAPNFKATAVMPDGQFKDISLSDYKGKYVVFFFYPLDFTFVCPTEIIAFSDRAEEFKKLNCQVIGASVDSHFCHLAWVNTPKKQGGLGPMNIPLVSDPKRTIAQDYGVLKADEGISFRGLFIIDDKGILRQITVNDLPVGRSVDETLRLVQAFQFTDKHGEVCPAGWKPGSDTIKPDVQKSKEYFSKQK
notes: peroxiredoxin 1, human, wild type, expressed from pLenti6/V5-DEST-PRDX1; The vector pLenti6/V5-DEST usually adds the V5 tag at the C-terminus (surmised; the plasmid is printed as PRDX1-V5); also called PRDX1-V5; WT; source: HEK293T, transfected (pLenti6-PRDX1-V5), in cells
Turning to B3, in series [3], the “stoichiometry N” value turned out to be 2.

B4: native untagged PRDX1, endogenous in HEK293T cells (enzyme, human (endogenous in HEK293T), UniProt Q06830 1-199, looked up)
chain: MSSGNAKIGHPAPNFKATAVMPDGQFKDISLSDYKGKYVVFFFYPLDFTFVCPTEIIAFSDRAEEFKKLNCQVIGASVDSHFCHLAWVNTPKKQGGLGPMNIPLVSDPKRTIAQDYGVLKADEGISFRGLFIIDDKGILRQITVNDLPVGRSVDETLRLVQAFQFTDKHGEVCPAGWKPGSDTIKPDVQKSKEYFSKQK
notes: peroxiredoxin 1, human, endogenous untagged protein of HEK293T cells; also called native untagged form; source: endogenous, HEK293T cells
Consider B4, for which the “stoichiometry N” value in series [3] came to 2.

B5: V5-tagged human PRDX1 C83A (enzyme, UniProt Q06830 1-199, looked up)
chain: MSSGNAKIGHPAPNFKATAVMPDGQFKDISLSDYKGKYVVFFFYPLDFTFVCPTEIIAFSDRAEEFKKLNCQVIGASVDSHFAHLAWVNTPKKQGGLGPMNIPLVSDPKRTIAQDYGVLKADEGISFRGLFIIDDKGILRQITVNDLPVGRSVDETLRLVQAFQFTDKHGEVCPAGWKPGSDTIKPDVQKSKEYFSKQK
notes: peroxiredoxin 1, human, Cys83 (outside the active site) changed to Ala; The vector pLenti6/V5-DEST usually adds the V5 tag at the C-terminus (surmised); source: HEK293T, transfected (pLenti6-PRDX1-V5), in cells
In the case of B5, the “stoichiometry N” value in series [3] amounted to 2.

B6: peroxiredoxin 4 (PRDX4), endogenous in Burkitt lymphoma cells (enzyme, human (endogenous in Raji and Ramos), UniProt Q13162 38-271, looked up)
chain: WETEERPRTREEECHFYAGGQVYPGEASRVSVADHSLHLSKAKISKPAPYWEGTAVIDGEFKELKLTDYRGKYLVFFFYPLDFTFVCPTEIIAFGDRLEEFRSINTEVVACSVDSQFTHLAWINTPRRQGGLGPIRIPLLSDLTHQISKDYGVYLEDSGHTLRGLFIIDDKGILRQITLNDLPVGRSVDETLRLVQAFQYTDKHGEVCPAGWKPGSETIIPDPAGKLKYFDKLN
notes: peroxiredoxin 4, human, endogenous in Raji and Ramos cells; source: endogenous, Raji and Ramos cells
In the case of B6, the “stoichiometry N” value in series [1] came out at 2.

B7: peroxiredoxin 2 (PRDX2), endogenous in Burkitt lymphoma cells (enzyme, human (endogenous in Raji and Ramos), UniProt P32119 1-198, looked up)
chain: MASGNARIGKPAPDFKATAVVDGAFKEVKLSDYKGKYVVLFFYPLDFTFVCPTEIIAFSNRAEDFRKLGCEVLGVSVDSQFTHLAWINTPRKEGGLGPLNIPLLADVTRRLSEDYGVLKTDEGIAYRGLFIIDGKGVLRQITVNDLPVGRSVDEALRLVQAFQYTDEHGEVCPAGWKPGSDTIKPNVDDSKEYFSKHN
notes: peroxiredoxin 2, human, endogenous in Raji and Ramos cells; source: endogenous, Raji and Ramos cells
As to B7, the “stoichiometry N” value in series [1] worked out at 2.

B8: peroxiredoxin 3 (PRDX3), endogenous in Burkitt lymphoma cells (enzyme, human (endogenous in Raji and Ramos), UniProt P30048 62-256, looked up)
chain: APAVTQHAPYFKGTAVVNGEFKDLSLDDFKGKYLVLFFYPLDFTFVCPTEIVAFSDKANEFHDVNCEVVAVSVDSHFSHLAWINTPRKNGGLGHMNIALLSDLTKQISRDYGVLLEGSGLALRGLFIIDPNGVIKHLSVNDLPVGRSVEETLRLVKAFQYVETHGEVCPANWTPDSPTIKPSPAASKEYFQKVNQ
notes: peroxiredoxin 3, human, endogenous in Raji and Ramos cells; source: endogenous, Raji and Ramos cells
On to B8, for which the “stoichiometry N” value in series [1] came to 2.
